Experimental data: paper PMC10786891, “Massively parallel profiling of RNA-targeting CRISPR-Cas13d”
Substitutions are numbered along the chain they refer to. Numbers in names are those of the source.

T1: EsCas13d, nuclease-dead (Eubacterium siraeum, UniProt B0MS50, R295A;H300A;R849A;H854A)
T1 sequence: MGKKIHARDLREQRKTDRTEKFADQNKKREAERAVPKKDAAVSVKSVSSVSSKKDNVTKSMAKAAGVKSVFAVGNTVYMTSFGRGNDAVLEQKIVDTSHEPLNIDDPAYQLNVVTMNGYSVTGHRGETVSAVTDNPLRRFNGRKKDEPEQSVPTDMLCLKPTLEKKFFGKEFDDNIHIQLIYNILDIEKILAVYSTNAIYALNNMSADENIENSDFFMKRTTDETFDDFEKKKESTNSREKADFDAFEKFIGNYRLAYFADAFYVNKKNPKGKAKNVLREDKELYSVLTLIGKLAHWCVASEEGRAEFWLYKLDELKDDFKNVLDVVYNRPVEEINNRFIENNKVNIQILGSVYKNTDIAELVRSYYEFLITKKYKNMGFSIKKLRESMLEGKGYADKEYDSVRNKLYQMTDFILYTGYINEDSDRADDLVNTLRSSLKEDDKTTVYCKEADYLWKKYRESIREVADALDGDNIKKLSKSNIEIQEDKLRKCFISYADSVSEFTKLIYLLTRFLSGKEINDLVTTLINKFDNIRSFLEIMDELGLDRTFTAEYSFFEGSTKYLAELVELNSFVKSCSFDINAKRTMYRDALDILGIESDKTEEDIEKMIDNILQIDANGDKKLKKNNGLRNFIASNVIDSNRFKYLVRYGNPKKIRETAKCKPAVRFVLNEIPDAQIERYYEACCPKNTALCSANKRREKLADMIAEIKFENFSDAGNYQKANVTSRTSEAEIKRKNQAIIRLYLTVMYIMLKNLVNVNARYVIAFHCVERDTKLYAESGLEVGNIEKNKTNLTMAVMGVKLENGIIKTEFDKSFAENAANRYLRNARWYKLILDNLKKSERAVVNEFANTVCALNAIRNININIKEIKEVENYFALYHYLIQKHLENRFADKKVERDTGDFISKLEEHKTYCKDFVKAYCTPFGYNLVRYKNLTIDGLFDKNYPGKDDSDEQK

B1: target 1 C2G,G15C (mixed)
RNA 1: CACCCGUGCAAAAAUGCAGGGGUCUAAAACUGAGCGGAUAACCUCUCUAUGG
RNA 2: GGGAAUGGAUCCACAUCUACGAAUUCGUACCAUAGACAGGUUAUCCGCUGACCGAGAUCGGAAGAGCACACGU
B2: target 1 A1U,A14G (mixed)
RNA 1: B1 RNA 1
RNA 2: B1 RNA 2 with C37G, A38G, G50C, A51U
B3: target 2 MT 5'PFS CAA 3'PFS AUC (mixed)
RNA 1: CACCCGUGCAAAAUUGCAGGGGUCUAAAACCUUCUCCAAAUUGUUUCAUCCU
RNA 2: GGGAAUGGAUCCACAUCUACGAAUUCCAAAGGAUGAAACAAUUUGGAGAAGAUCAGAUCGGAAGAGCACACGU
B4: target 2 MT 5'PFS CGG 3'PFS UCA (mixed)
RNA 1: B3 RNA 1
RNA 2: B3 RNA 2 with A28G, A29G, A52U, U53C, C54A
B5: target 2 MT 5'PFS GUU 3'PFS AAU (mixed)
RNA 1: B3 RNA 1
RNA 2: B3 RNA 2 with C27G, A28U, A29U, U53A, C54U
B6: target 2 MT 5'PFS AGA 3'PFS CGA (mixed)
RNA 1: B3 RNA 1
RNA 2: B3 RNA 2 with C27A, A28G, A52C, U53G, C54A
B7: target 2 MT 5'PFS GUA 3'PFS CAU (mixed)
RNA 1: B3 RNA 1
RNA 2: B3 RNA 2 with C27G, A28U, A52C, U53A, C54U
B8: target 2 MT 5'PFS CUC 3'PFS UCU (mixed)
RNA 1: B3 RNA 1
RNA 2: B3 RNA 2 with A28U, A29C, A52U, U53C, C54U
B9: target 2 MT 5'PFS CAA 3'PFS AUA (mixed)
RNA 1: B3 RNA 1
RNA 2: B3 RNA 2 with C54A
B10: target 2 MT 5'PFS AGA 3'PFS CGG (mixed)
RNA 1: B3 RNA 1
RNA 2: B3 RNA 2 with C27A, A28G, A52C, U53G, C54G
B11: target 2 MT 5'PFS CUC 3'PFS UCC (mixed)
RNA 1: B3 RNA 1
RNA 2: B3 RNA 2 with A28U, A29C, A52U, U53C
B12: target 2 MT 5'PFS AGC 3'PFS UGU (mixed)
RNA 1: B3 RNA 1
RNA 2: B3 RNA 2 with C27A, A28G, A29C, A52U, U53G, C54U
B13: target 2 MT 5'PFS AGC 3'PFS AAU (mixed)
RNA 1: B3 RNA 1
RNA 2: B3 RNA 2 with C27A, A28G, A29C, U53A, C54U
B14: target 2 MT 5'PFS AGU 3'PFS CGC (mixed)
RNA 1: B3 RNA 1
RNA 2: B3 RNA 2 with C27A, A28G, A29U, A52C, U53G
B15: target 2 MT 5'PFS AGU 3'PFS CGU (mixed)
RNA 1: B3 RNA 1
RNA 2: B3 RNA 2 with C27A, A28G, A29U, A52C, U53G, C54U
B16: target 2 MT 5'PFS AGC 3'PFS AAC (mixed)
RNA 1: B3 RNA 1
RNA 2: B3 RNA 2 with C27A, A28G, A29C, U53A
B17: target 2 MT 5'PFS CUC 3'PFS UCA (mixed)
RNA 1: B3 RNA 1
RNA 2: B3 RNA 2 with A28U, A29C, A52U, U53C, C54A

target: T1, EsCas13d, nuclease-dead; test: crRNA (strand 1, pre-loaded); Mg2+; 40 mM Tris-HCl pH 7.5, 150 mM NaCl, 6 mM MgCl2, 1 mM DTT, 0.1% Tween-20, 0.2 mg/ml BSA; 25 C; 10 min per concentration, then washed; details: tags: His6-TwinStrep-SUMO cleaved; N-terminal SNAP kept (SNAP-Surface 488); label: 3' end held by stalled T7 RNA polymerase

Point of comparison: B2, Kd 17 ± 1.3 nM. Against it:
- B1 — 2.1-fold higher, 35.8 ± 3.1 nM
- B3 — 7.1-fold lower, 2.4 ± 1.1 nM
- B4 — within error, 11 ± 5 nM
- B5 — 2.3-fold lower, 7.5 ± 0.6 nM
- B6 — 3.1-fold lower, 5.5 ± 0.8 nM
- B7 — 2.7-fold lower, 6.3 ± 0.5 nM
- B8 — 3.4-fold lower, 5 ± 0.6 nM
- B9 — 3.1-fold lower, 5.5 ± 1.8 nM
- B10 — 3.3-fold lower, 5.2 ± 0.6 nM
- B11 — 3.2-fold lower, 5.3 ± 0.9 nM
- B12 — within 1.5-fold, 12.7 ± 1.8 nM
- B13 — 2.4-fold lower, 7.1 ± 1.4 nM
- B14 — within error, 14.6 ± 1.9 nM
- B15 — within error, 13.9 ± 2.3 nM
- B16 — within error, 13 ± 4 nM
- B17 — 5.2-fold lower, 3.3 ± 0.5 nM
